In data set [1] the target is T1, CceR-6xHis (Rhodobacter sphaeroides 2.4.1, UniProt Q3J5X3 1-345).
T1 sequence: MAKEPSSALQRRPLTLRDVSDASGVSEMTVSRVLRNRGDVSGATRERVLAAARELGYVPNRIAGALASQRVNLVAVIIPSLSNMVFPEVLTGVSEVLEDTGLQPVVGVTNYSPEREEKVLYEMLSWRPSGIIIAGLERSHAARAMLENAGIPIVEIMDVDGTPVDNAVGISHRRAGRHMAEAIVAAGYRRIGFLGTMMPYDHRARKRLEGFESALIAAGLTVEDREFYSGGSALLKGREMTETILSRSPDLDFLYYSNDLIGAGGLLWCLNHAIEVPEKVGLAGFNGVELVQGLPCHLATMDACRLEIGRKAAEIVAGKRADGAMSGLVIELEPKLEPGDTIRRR
Nature of the data set: EMSA.

Data set [2] deals with T1, CceR-6xHis. Nature of the data set: EMSA. This is another data set of the same source.

Where two headings read alike, the source gives them in different places.

B1: zwf promoter fragment (dsDNA)
DNA 1: CGGGCGTCTTTCCACATTTACCCCGGCGGGGGGCGCGCTAGACTCGGGCCACGGCAGCCGCTAGAACGGCCGTTAGCGCTAACAGGCGAGGCAGC
DNA 2: GCTGCCTCGCCTGTTAGCGCTAACGGCCGTTCTAGCGGCTGCCGTGGCCCGAGTCTAGCGCGCCCCCCGCCGGGGTAAATGTGGAAAGACGCCCG
Consider B1, for which the binding result with CceR-6xHis [1] is on record as “binds”.

B2: bchF promoter fragment (dsDNA)
DNA 1: TCATCCAAGGAGGAACGCATGTCAAAGAAAATTGACACCTCAGGCAGCGGAGGCAGCCCATCCCCCGCTGAACTCACACTTAATCCTTGGATTTACGACAGAGTGTCGCAGCTTC
DNA 2: GAAGCTGCGACACTCTGTCGTAAATCCAAGGATTAAGTGTGAGTTCAGCGGGGGATGGGCTGCCTCCGCTGCCTGAGGTGTCAATTTTCTTTGACATGCGTTCCTCCTTGGATGA
Regarding B2, the binding result in the data set with CceR-6xHis [2] was “no binding”.
